Experimental data published in paper PMC4961847 (2016).

Target: PD-L1 ECD (Homo sapiens, UniProt Q9NZQ7)
Experiment: magneto-nanosensor

Chain of PD-L1 ECD (Q9NZQ7 19-238): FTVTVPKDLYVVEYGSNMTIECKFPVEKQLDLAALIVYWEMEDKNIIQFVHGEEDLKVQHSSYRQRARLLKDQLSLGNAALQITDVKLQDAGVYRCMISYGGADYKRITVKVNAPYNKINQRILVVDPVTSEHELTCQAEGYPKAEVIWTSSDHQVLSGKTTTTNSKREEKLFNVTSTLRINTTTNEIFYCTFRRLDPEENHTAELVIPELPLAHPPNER

Kd: 9.1 µM
B1: PD-L2 ECD (protein)
chain: LFTVTVPKELYIIEHGSNVTLECNFDTGSHVNLGAITASLQKVENDTSPHRERATLLEEQLPLGKASFHIPQVQVRDEGQYQCIIIYGVAWDYKYLTLKVKASYRKINTHILKVPETDEVELTCQATGYPLAEVSWPNVSVPANTSHSRTPEGLYQVTSVLRLKPPPGRNFSCVFWNTHVRELTLASIDLQSQMEPRTHPT
